In article PMC12412787:

Target: T1, Pyl1p (Yarrowia lipolytica, UniProt Q6CBN1 1-600)
T1 sequence: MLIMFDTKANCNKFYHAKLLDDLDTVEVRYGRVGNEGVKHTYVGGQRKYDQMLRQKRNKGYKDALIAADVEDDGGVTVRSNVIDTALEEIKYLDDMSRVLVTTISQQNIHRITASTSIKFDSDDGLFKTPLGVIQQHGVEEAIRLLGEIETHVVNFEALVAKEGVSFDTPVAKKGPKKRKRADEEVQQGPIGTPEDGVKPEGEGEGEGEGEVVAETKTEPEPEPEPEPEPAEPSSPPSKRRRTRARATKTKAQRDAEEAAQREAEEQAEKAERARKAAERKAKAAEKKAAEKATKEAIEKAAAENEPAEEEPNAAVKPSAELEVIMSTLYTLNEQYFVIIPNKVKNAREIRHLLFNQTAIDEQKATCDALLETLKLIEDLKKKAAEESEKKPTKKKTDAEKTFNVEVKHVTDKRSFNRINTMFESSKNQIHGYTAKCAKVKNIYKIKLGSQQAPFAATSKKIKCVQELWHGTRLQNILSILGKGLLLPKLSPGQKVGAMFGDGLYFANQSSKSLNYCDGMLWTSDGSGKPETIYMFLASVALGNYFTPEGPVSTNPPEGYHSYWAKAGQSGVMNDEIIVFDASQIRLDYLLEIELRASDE
Test: EMSA

B1: dsTEL probe (YlipTEL_G/YlipTEL_C) (dsDNA)
DNA 1: TTAGTCAGGGTTAGTCAGGG
DNA 2: CCCTGACTAACCCTGACTAA
B1: binds.
